# Data reported in patent publication US20110281938, “APTAMERS TO TISSUE FACTOR PATHWAY INHIBITOR AND THEIR USE AS BLEEDING DISORDER THERAPEUTICS” (Baxter Healthcare S.A., published 2011).
# How the values were obtained:
# Conditions in all cases: tags: American Diagnostica 4500PC/4900PC, E. coli expressed
# [1] = target: T1, TFPI (tissue factor pathway inhibitor, full-length) (Homo sapiens, UniProt P10646 SEQ:1-276); test: competition; fails binding-competition criterion
# Protocol: (§1) Each molecule was evaluated for binding to tissue factor pathway inhibitor (TFPI) in a binding-competition assay. For these experiments, 10 nM human TFPI (American Diagnostica, Stamford, Conn., catalog #4500PC) was incubated with trace amounts of radiolabeled ARC17480 and 5000 nM, 1666.67 nM, 555.56 nM, 185.19 nM, 61.73 nM, 20.58 nM, 6.86 nM, 2.29 nM, 0.76 nM or 0.25 nM of unlabeled competitor aptamer. ARC17480 was included as a competitor in every experiment as a control. For each molecule, the percentage of radiolabeled ARC17480 bound at each competitor aptamer concentration was used for analysis. The percentage of radiolabeled ARC17480 bound was plotted as a function of aptamer concentration and fit to the equation y=(max/(1+x/IC₅₀))+int, where y=the percentage of radiolabeled ARC17480 bound, x=the concentration of aptamer, max=the maximum radiolabeled ARC17480 bound, and int=the y-intercept, to generate an IC₅₀ value for binding-competition. The IC₅₀ of each aptamer was compared to the IC₅₀ of ARC17480 that was evaluated in the same experiment. A substitution was considered tolerated in the binding-competition assay if the IC₅₀ of that molecule was not more than 5-fold greater than that of ARC17480 evaluated in the same experiment. Tolerated substitutions are indicated in Table 38 as meeting the assay criteria (“yes”) or not meeting the assay criteria (“no”).
# [2] = target: T1, TFPI (tissue factor pathway inhibitor, …); test: competition; meets binding-competition criterion
# Protocol: as §1
# [3] = target: T1, TFPI (tissue factor pathway inhibitor, …); test: competition; fails binding-competition criterion; remark: listed apart in the source
# Protocol: The substituted ARC17480 molecules were assayed for binding and function. The assays used for this evaluation were the calibrated automated thrombogram (CAT) assay, a dot-blot binding-competition assay and a FXa activity assay. The results of these assays are summarized in Table 40 and depicted in FIG. 147. A mutation was considered tolerated for activity if it met the criteria of at least two of the three assays that were carried out. Mutations that are tolerated (“yes”) and not tolerated (“no”) are identified in Table 40. The experimental details and the criteria used for each assay are described in the following paragraphs. The molecules described in this example were first tested in the CAT assay and the dot-blot binding-competition assay. In most cases, molecules were only tested in the FXa assay if there was a discrepancy between the results in the CAT assay and the dot-blot binding-competition assay.
# Each molecule was evaluated for binding to tissue factor pathway inhibitor (TFPI) in a binding-competition assay. For these experiments, 10 nM human TFPI (American Diagnostica, Stamford, Conn., catalog #4900PC) was incubated with trace amounts of radiolabeled ARC17480 and 5000 nM, 1666.67 nM, 555.56 nM, 185.19 nM, 61.73 nM, 20.58 nM, 6.86 nM, 2.29 nM, 0.76 nM or 0.25 nM of unlabeled competitor aptamer. ARC17480 was included as a competitor in every experiment as a control. For each molecule, the percentage of radiolabeled ARC17480 bound at each competitor aptamer concentration was used for analysis. The percentage of radiolabeled ARC17480 bound was plotted as a function of aptamer concentration and fit to the equation y=(max/(1+x/IC₅₀))+int, where y=the percentage of radiolabeled ARC17480 bound, x=the concentration of aptamer, max=the maximum radiolabeled ARC17480 bound, and int=the y-intercept, to generate an IC₅₀ value for binding-competition. The IC₅₀ of each aptamer was compared to the IC₅₀ of ARC17480 that was evaluated in the same experiment. A mutation was considered tolerated in the binding-competition assay if the IC₅₀ of that molecule was not more than 5-fold greater than that of ARC17480 evaluated in the same experiment. Tolerated mutations are indicated in Table 40 as meeting the assay criteria (“yes”) or not meeting the assay criteria (“no”).
# T1 sequence (P10646 29-304): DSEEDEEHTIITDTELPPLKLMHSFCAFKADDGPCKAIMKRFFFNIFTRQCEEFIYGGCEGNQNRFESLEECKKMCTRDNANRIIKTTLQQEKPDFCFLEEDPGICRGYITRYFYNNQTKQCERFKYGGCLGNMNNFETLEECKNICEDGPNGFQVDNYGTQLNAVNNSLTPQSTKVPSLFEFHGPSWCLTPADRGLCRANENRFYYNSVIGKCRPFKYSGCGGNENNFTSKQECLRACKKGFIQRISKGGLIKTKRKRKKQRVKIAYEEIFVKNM
Binder,binding signal [1],binding signal [3],other results
"GGAAUAUACUUGGCUCGUUAGGUGCGAUAUA (mixed, 2'-OMe A/G/U, 2'-deoxy C, 3' idT) [ARC33139]",> 5 fold IC50 of ARC17480,,
"GGAAUAUACUUGGCUCGUUAGGUGCGUUAUA (mixed, 2'-OMe A/G/U, 2'-deoxy C, 3' idT) [ARC33140]",> 5 fold IC50 of ARC17480,,
"GGAAUAUACUUGGCUCGUUAGGUGCGUAUUA (mixed, 2'-OMe A/G/U, 2'-deoxy C, 3' idT) [ARC33142]",,,binding signal [2]: ≤ 5 fold IC50 of ARC17480
"GGAAUAUACUUGGCUCGUUAGGGCGUAUAUA (mixed, 2'-OMe A/G/U, 2'-deoxy C, 3' idT) [ARC33135]",> 5 fold IC50 of ARC17480,,
"GGAAUAUACUUGGCUCGUUAGGUGCUAUAUA (mixed, 2'-OMe A/G/U, 2'-deoxy C, 3' idT) [ARC33138]",> 5 fold IC50 of ARC17480,,
"GGAAUAUACUUGGCUCGUUAGGUGGUAUAUA (mixed, 2'-OMe A/G/U, 2'-deoxy C, 3' idT) [ARC33137]",> 5 fold IC50 of ARC17480,,
"GGAAUAUACUUGGCUCGUUAGGUCGUAUAUA (mixed, 2'-OMe A/G/U, 2'-deoxy C, 3' idT) [ARC33136]",> 5 fold IC50 of ARC17480,,
"AAUAUACUUGGCUCGUUAGGUGCGUAUAUA (mixed, 2'-OMe A/G/U, 2'-deoxy C, 3' idT) [ARC32302]",,,binding signal [2]: ≤ 5 fold IC50 of ARC17480
"GGAAUAUACUUGGCUCGUUAGGUGCGUAUAA (mixed, 2'-OMe A/G/U, 2'-deoxy C, 3' idT) [ARC33143]",,,binding signal [2]: ≤ 5 fold IC50 of ARC17480
"GGAAUAUACUUGGCUCGUUAGGUGCGUAUAU (mixed, 2'-OMe A/G/U, 2'-deoxy C, 3' idT) [ARC18555]",,,binding signal [2]: ≤ 5 fold IC50 of ARC17480
"GGAAUAUACUUGGCUCGUUAUGCGUAUAUA (mixed, 2'-OMe A/G/U, 2'-deoxy C, 3' idT) [ARC33148]",> 5 fold IC50 of ARC17480,,
"AAUAUACUUGGCUCGUUAGGUGCGUAUA (mixed, 2'-OMe A/G/U, 2'-deoxy C, 3' idT) [ARC32306]",,,binding signal [2]: ≤ 5 fold IC50 of ARC17480
"GAAUAUACUUGGCUCGUUAGGUGCGUAUAU (mixed, 2'-OMe A/G/U, 2'-deoxy C, 3' idT) [ARC32305]",,,binding signal [2]: ≤ 5 fold IC50 of ARC17480
"AUAUACUUGGCUCGUUAGGUGCGUAUAUA (mixed, 2'-OMe A/G/U, 2'-deoxy C, 3' idT) [ARC32303]",,,binding signal [2]: ≤ 5 fold IC50 of ARC17480
"GGAAUAUACGGCUCGUUAGGUGCGUAUAUA (mixed, 2'-OMe A/G/U, 2'-deoxy C, 3' idT) [ARC33145]",> 5 fold IC50 of ARC17480,,
"GGAAUAUACUUGGCUCGAGGUGCGUAUAUA (mixed, 2'-OMe A/G/U, 2'-deoxy C, 3' idT) [ARC33147]",> 5 fold IC50 of ARC17480,,
"GGUAUACUUGGCUCGUUAGGUGCGUAUAUA (mixed, 2'-OMe A/G/U, 2'-deoxy C, 3' idT) [ARC33144]",,,binding signal [2]: ≤ 5 fold IC50 of ARC17480
"GGAAUAUACUUGGCUCUUAGGUGCGUAUAUA (mixed, 2'-OMe A/G/U, 2'-deoxy C, 3' idT) [ARC33131]",> 5 fold IC50 of ARC17480,,
"GGAAUAUACUUGGCUCGUUAGUGCGUAUAUA (mixed, 2'-OMe A/G/U, 2'-deoxy C, 3' idT) [ARC33134]",> 5 fold IC50 of ARC17480,,
"GGAAUAUACUUGGCUCGUUGGUGCGUAUAUA (mixed, 2'-OMe A/G/U, 2'-deoxy C, 3' idT) [ARC33133]",> 5 fold IC50 of ARC17480,,
"GGAAUAUACUUGGCUTGUUAGGUGCGUAUAUA (mixed, 2'-OMe A/G/U, dT16, 2'-deoxy C, 3' idT) [ARC33164]",,> 5 fold IC50 of ARC17480,

Binder,binding signal [1],binding signal [3],other results
"GGAAUAUACUUGGCUCGUUAGGUGCUUAUAUA (mixed, 2'-OMe A/G/U, 2'-deoxy C, 3' idT) [ARC33174]",,> 5 fold IC50 of ARC17480,
"GGAAUAUACUUGGCUCGUUAGGUGTGUAUAUA (mixed, 2'-OMe A/G/U, dT25, 2'-deoxy C, 3' idT) [ARC33173]",,> 5 fold IC50 of ARC17480,
"GGAAUAUACUUUGCUCGUUAGGUGCGUAUAUA (mixed, 2'-OMe A/G/U, 2'-deoxy C, 3' idT) [ARC33160]",,> 5 fold IC50 of ARC17480,
"GGAAUAUATUUGGCUCGUUAGGUGCGUAUAUA (mixed, 2'-OMe A/G/U, dT9, 2'-deoxy C, 3' idT) [ARC33157]",,> 5 fold IC50 of ARC17480,
"GGAAUAUACUCGGCUCGUUAGGUGCGUAUAUA (mixed, 2'-OMe A/G/U and mC11, other C 2'-deoxy, 3' idT) [ARC33159]",,> 5 fold IC50 of ARC17480,
"GGAAUAUACUUGUCUCGUUAGGUGCGUAUAUA (mixed, 2'-OMe A/G/U, 2'-deoxy C, 3' idT) [ARC33161]",,> 5 fold IC50 of ARC17480,
"GGAAUAUACUUGGCUCUUUAGGUGCGUAUAUA (mixed, 2'-OMe A/G/U, 2'-deoxy C, 3' idT) [ARC33165]",,> 5 fold IC50 of ARC17480,
"GGAAUAUACUUGGCUCGUUAGGUUCGUAUAUA (mixed, 2'-OMe A/G/U, 2'-deoxy C, 3' idT) [ARC33172]",,> 5 fold IC50 of ARC17480,
"GGAAUAAACUUGGCUCGUUAGGUGCGUAUAUA (mixed, 2'-OMe A/G/U, 2'-deoxy C, 3' idT) [ARC34868]",,> 5 fold IC50 of ARC17480,
"GGAAUAGACUUGGCUCGUUAGGUGCGUAUAUA (mixed, 2'-OMe A/G/U, 2'-deoxy C, 3' idT) [ARC34869]",,> 5 fold IC50 of ARC17480,
"GGAAUAUACUUGGCUCGUUAGGUGCGUUUAUA (mixed, 2'-OMe A/G/U, 2'-deoxy C, 3' idT) [ARC33176]",,> 5 fold IC50 of ARC17480,
"GGAAUAUACUUGGCUCGUUUGGUGCGUAUAUA (mixed, 2'-OMe A/G/U, 2'-deoxy C, 3' idT) [ARC33168]",,> 5 fold IC50 of ARC17480,
"GGAAUAUACUUGGCCCGUUAGGUGCGUAUAUA (mixed, 2'-OMe A/G/U and mC15, other C 2'-deoxy, 3' idT) [ARC33163]",,> 5 fold IC50 of ARC17480,
"GGAAUAUACUUGGCUCGUUAGGUGCGCAUAUA (mixed, 2'-OMe A/G/U and mC27, other C 2'-deoxy, 3' idT) [ARC33175]",,> 5 fold IC50 of ARC17480,
"GGAAUAUACUUGGCUCGUUAGGCGCGUAUAUA (mixed, 2'-OMe A/G/U and mC23, other C 2'-deoxy, 3' idT) [ARC33171]",,> 5 fold IC50 of ARC17480,
"GGAAUAUACUUGGCUCGUUAGUUGCGUAUAUA (mixed, 2'-OMe A/G/U, 2'-deoxy C, 3' idT) [ARC33170]",,> 5 fold IC50 of ARC17480,
"GAAUAUACUUGGCUCGUUAGGUGCGUAUAUA (mixed, 2'-OMe A/G/U, 2'-deoxy C, 3' idT) [ARC32301]",,,binding signal [2]: ≤ 5 fold IC50 of ARC17480
"GGAAAUACUUGGCUCGUUAGGUGCGUAUAUA (mixed, 2'-OMe A/G/U, 2'-deoxy C, 3' idT) [ARC33121]",,,binding signal [2]: ≤ 5 fold IC50 of ARC17480
"GGAUAUACUUGGCUCGUUAGGUGCGUAUAUA (mixed, 2'-OMe A/G/U, 2'-deoxy C, 3' idT) [ARC33120]",,,binding signal [2]: ≤ 5 fold IC50 of ARC17480
"GGAAUAUACUUCUCGUUAGGUGCGUAUAUA (mixed, 2'-OMe A/G/U, 2'-deoxy C, 3' idT) [ARC33146]",> 5 fold IC50 of ARC17480,,
